# Measurements as given in paper doi:10.1101/2025.05.15.654217.
# Target: 3×FLAG–SpaO^L-V5pBpa (Salmonella enterica serovar Typhimurium SL1344) (UniProt P40699)
# Assay: cross-linking
# Sequence of UniProt P40699 (P40699 whole entry, looked up): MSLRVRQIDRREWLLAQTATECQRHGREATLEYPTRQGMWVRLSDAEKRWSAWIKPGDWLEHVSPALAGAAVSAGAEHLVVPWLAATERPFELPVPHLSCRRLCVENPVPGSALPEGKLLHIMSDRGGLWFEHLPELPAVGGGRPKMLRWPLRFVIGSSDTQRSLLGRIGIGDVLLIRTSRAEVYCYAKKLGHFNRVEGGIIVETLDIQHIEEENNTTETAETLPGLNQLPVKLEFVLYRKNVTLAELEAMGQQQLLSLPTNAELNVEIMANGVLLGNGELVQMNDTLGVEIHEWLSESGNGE
substance,measurement,value
M45-SpaO^short F34pBpa (natural protein),stoichiometry N (SpaO^short per SpaO^L),2
